According to patent US20130330346A1 (Novartis, published 2013):

T1: Human CXCR2 (human, UniProt P25025 1-360)
T1 sequence: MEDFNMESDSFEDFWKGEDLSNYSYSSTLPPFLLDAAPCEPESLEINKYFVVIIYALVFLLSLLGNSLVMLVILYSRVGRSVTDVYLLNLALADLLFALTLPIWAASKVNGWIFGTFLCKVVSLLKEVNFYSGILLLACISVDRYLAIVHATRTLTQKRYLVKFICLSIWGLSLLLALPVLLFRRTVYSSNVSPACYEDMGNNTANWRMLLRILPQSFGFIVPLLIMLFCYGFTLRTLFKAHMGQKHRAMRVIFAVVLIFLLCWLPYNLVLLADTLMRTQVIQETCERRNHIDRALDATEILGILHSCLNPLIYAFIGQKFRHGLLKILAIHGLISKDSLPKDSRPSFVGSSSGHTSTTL

T2: Cynomolgus CXCR2 (cynomolgus, UniProt Q28519 3-353 (rhesus entry))
T2 construct: On transfected HEK293T or RBL-2H3 cells; native on cynomolgus neutrophils in the WBSC assay; also called cCXCR2; cynoCXCR2
T2 chain: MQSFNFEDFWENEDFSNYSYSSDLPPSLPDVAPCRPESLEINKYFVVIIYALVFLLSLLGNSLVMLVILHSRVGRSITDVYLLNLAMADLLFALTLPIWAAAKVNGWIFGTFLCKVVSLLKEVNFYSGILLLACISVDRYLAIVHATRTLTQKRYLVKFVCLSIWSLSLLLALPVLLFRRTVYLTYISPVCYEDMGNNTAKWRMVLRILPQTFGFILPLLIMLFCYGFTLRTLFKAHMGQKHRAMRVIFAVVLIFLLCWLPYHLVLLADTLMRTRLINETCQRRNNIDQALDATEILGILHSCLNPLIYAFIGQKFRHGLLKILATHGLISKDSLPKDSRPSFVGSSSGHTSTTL


Key:
Human CXCR2 [1] = target: T1, Human CXCR2; test: cell-based or functional assay
Human CXCR2 [2] = target: T1, Human CXCR2; test: cell-based or functional assay; remark: listed apart in the source
Human CXCR2 [3] = target: T1, Human CXCR2; test: FACS competition vs 3 nM FMAT-Blue Gro-α
Method: (§1) Multivalent anti-CXCR2Nanobodies were titrated against 3 nM FMAT-Blue-labeled Gro-α in the FACS ligand competition assay on human and cynomolgus CXCR2 (Table 14). On human CXCR2, blocking potencies range between double digit nM and sub-nM whereas on cynomolgus CXCR2, they range between single and double digit nM.

Cynomolgus CXCR2 [4] = target: T2, Cynomolgus CXCR2; test: FACS competition vs 3 nM FMAT-Blue Gro-α
Method: as §1

Human CXCR2 [5] = target: T1, Human CXCR2; test: cell-based or functional assay; remark: listed apart in the source
Cynomolgus CXCR2 [6] = target: T2, Cynomolgus CXCR2; test: cell-based or functional assay
Human CXCR2 [7] = target: T1, Human CXCR2; test: cell-based or functional assay; remark: listed apart in the source
Cynomolgus CXCR2 [8] = target: T2, Cynomolgus CXCR2; test: cell-based or functional assay
Human CXCR2 [9] = target: T1, Human CXCR2; test: FACS hGro-α competition
Cynomolgus CXCR2 [10] = target: T2, Cynomolgus CXCR2; test: FACS hGro-α competition
Human CXCR2 [11] = target: T1, Human CXCR2; test: cell-based or functional assay; remark: listed apart in the source
Cynomolgus CXCR2 [12] = target: T2, Cynomolgus CXCR2; test: cell-based or functional assay

Binder	[35S]GTPγS % inhibition of max (GRO-α) (Human CXCR2 [1]) [%]	[35S]GTPγS IC50 (GRO-α) (Human CXCR2 [1]) [nM]	% inhibition of max (Human CXCR2 [3]) [%]	IC50 (Human CXCR2 [3]) [nM]	% inhibition of max (Cynomolgus CXCR2 [4]) [%]	IC50 (Cynomolgus CXCR2 [4]) [nM]	Human Chemotaxis IC50 (rhGROα) (Human CXCR2 [5]) [nM]	Human WBSC IC50 (rhGROα) (Human CXCR2 [5]) [nM]	Cynomologus WBSC IC50 (rhGROα) (Cynomolgus CXCR2 [6]) [nM]	FLIPR % inhibition of max (Human CXCR2 [7]) [%]	FLIPR IC50 (GRO-α induced calcium release) (Human CXCR2 [7]) [nM]	FLIPR % inhibition of max (Cynomolgus CXCR2 [8]) [%]	FLIPR IC50 (GRO-α induced calcium release) (Cynomolgus CXCR2 [8]) [nM]	[35S]GTPγS % inhibition of max (ENA-78) (Human CXCR2 [1]) [%]	[35S]GTPγS % inhibition of max (IL-8) (Human CXCR2 [1]) [%]	[35S]GTPγS IC50 (ENA-78) (Human CXCR2 [1]) [nM]	[35S]GTPγS IC50 (IL-8) (Human CXCR2 [1]) [nM]	IC50 (Cynomolgus CXCR2 [10]) [nM]	FLIPR hGro-α IC50 (Human CXCR2 [11]) [nM]	FLIPR hGro-α IC50 (Cynomolgus CXCR2 [12]) [nM]	further results
CXCR20026 (bispecific antibody, Biparatopic: two VHH joined by a GlySer linker; also called 163E3-35GS-127D1; 163E3-127D1; not shown: C-terminal c-myc tag and His6 tag coded by pAX100) EVQLVESGGGLVQPGGSLRLSCVASGRIFSSNAMGWFRQAPGKEREFVAAITWRSGGSAYYADSAKGRFTISRDNAKNTVYLQMNSLKPEDTAVYYCAAGGSSWLSFPPDYWGQGTQVTVSSGGGGSGGGGSGGGGSGGGGSGGGGSGGGGSGGGGSEVQLVESGGGLVQAGESLRLSCAASGSTFDFKVMGWYRQPPGKQREGVAAIRLSGNMHYAESVKGRFTISKANAKNTVYLQMNSLRPEDTAVYYCKVNIRGQDYWGQGTQVTVSS	100	0.809	99.5	0.9	99	1.82	0.14	0.165	0.26	100	12.3	100	9.1	–	–	–	–	–	–	–	IC50 (M) at 5 nM GROα (inhibition of GRO-α, FIG. 2) (Human CXCR2 [2]): 6.53e-10 M; IC50 (M) at 15 nM GROα (inhibition of GRO-α, FIG. 2) (Human CXCR2 [2]): 1.98e-09 M; IC50 (M) at 150 nM GROα (inhibition of GRO-α, FIG. 2) (Human CXCR2 [2]): 6.71e-08 M
CXCR20035 (other, Biparatopic: two VHH joined by a GlySer linker; also called 54B12-35GS-163E3; 54B12-163E3; not shown: C-terminal c-myc tag and His6 tag coded by pAX100) EVQLVESGGGLVQAGGSLTLSCAVSGSTFRINTMGWYRRAPGKQRELVAARDRGGYINYVDSVKGRFTVSRDNAKPTMYLQMNSLKPEDTAVYYCHAGTQDRTGRNFDRWGQGTQVTVSSGGGGSGGGGSGGGGSGGGGSGGGGSGGGGSGGGGSEVQLVESGGGLVQPGGSLRLSCVASGRIFSSNAMGWFRQAPGKEREFVAAITWRSGGSAYYADSAKGRFTISRDNAKNTVYLQMNSLKPEDTAVYYCAAGGSSWLSFPPDYWGQGTQVTVSS	100	0.844	99	1	99	3.23	–	0.24	0.43	100	10.2	100	8.72	100	100	1.17	0.717	–	–	–	–
CXCR20014 (bispecific antibody, Biparatopic: two VHH joined by a GlySer linker; also called 97A9-35GS-2B2; 97A9-2B2; not shown: C-terminal c-myc tag and His6 tag coded by pAX100) EVQLVESGGGLVQPGGSLRLSCVASGSIVRINTMGWYRQTPGKQRELVADITSGGNINYIDAVKGRFTISRDNTKNTVYLQMNSLKPEDTAVYYCNAEIVVLVGVWTQRARTGNYWGQGTQVTVSSGGGGSGGGGSGGGGSGGGGSGGGGSGGGGSGGGGSEVQLVESGGELVQPGGSLRLSCAASGSILTINAMGWYRQAPGKQRELVVRRTRGGSTTYQDSVKGRFTISADIAKKTMYLQMNSLKPEDTAVYYCMLDDRGGVYWGQGTQVTVSS	100	1.38	99.7	1.59	98.5	3.9	0.16	0.445	0.16	100	6.84	100	13.7	100	100	1.66	1.13	–	–	–	–
CXCR20020 (bispecific antibody, Biparatopic: two VHH joined by a GlySer linker; also called 127D1-35GS-163D2; 127D1-163D2; not shown: C-terminal c-myc tag and His6 tag coded by pAX100) EVQLVESGGGLVQAGESLRLSCAASGSTFDFKVMGWYRQPPGKQREGVAAIRLSGNMHYAESVKGRFTISKANAKNTVYLQMNSLRPEDTAVYYCKVNIRGQDYWGQGTQVTVSSGGGGSGGGGSGGGGSGGGGSGGGGSGGGGSGGGGSEVQLVESGGGLVQAGGSLRLSCAASGRTFSDYAMGWFRQAPGKEREFVAAITWNGGRVFYTASVKGRFTISRDNAKNTMYLQMNSLKPEDTAVYYCAADKDRRTDYLGHPVAYWGQGTQVTVSS	100	0.634	100	0.99	98.5	1.78	0.143	0.17	0.12	100	6.98	100	1.64	100	100	0.707	0.619	–	–	–	–
CXCR20059 (VHH) VHH: EVQLLESGGGLVQPGGSLRLSCAASGSILTINAMGWYRQAPGKQRELVVRRTRGGSTTYQDSVKGRFTISADISKKTMYLQMNSLRPEDTAVYYCLLDDRGGVYWGQGTLVTVSS	–	–	–	–	–	–	–	–	–	–	–	–	–	–	–	–	–	19	390	19000	IC50 (Human CXCR2 [9]): 1.5 nM
CXCR20063 (VHH) VHH: EVQLLESGGGLVQPGGSLRLSCAASGSILTINAMGWYRQAPGKQRELVVRRTRGGSTTYQDSVKGRFTISADISKNTMYLQMNSLRPEDTAVYYCLLDDRGGVYWGQGTLVTVSS	–	–	–	–	–	–	–	–	–	–	–	–	–	–	–	–	–	54	6100	24000	–
